Source: publication PMC3578862, “Single Residue Mutation in Active Site of Serine Acetyltransferase Isoform 3 from Entamoeba histolytica Assists in Partial Regaining of Feedback Inhibition by Cysteine” (PLoS ONE, 2013)

Experiments:
[1] = biological target: T1, Serine acetyltransferase isoform 1 (EhSAT1) (Entamoeba histolytica, UniProt Q9U8X2); experiment: SAT activity assay, acetyl-CoA thioester cleavage at […] nm, […] serine; type: biochemical
T1 construct: gene EhSAT
T1 sequence (Q9U8X2 1-305): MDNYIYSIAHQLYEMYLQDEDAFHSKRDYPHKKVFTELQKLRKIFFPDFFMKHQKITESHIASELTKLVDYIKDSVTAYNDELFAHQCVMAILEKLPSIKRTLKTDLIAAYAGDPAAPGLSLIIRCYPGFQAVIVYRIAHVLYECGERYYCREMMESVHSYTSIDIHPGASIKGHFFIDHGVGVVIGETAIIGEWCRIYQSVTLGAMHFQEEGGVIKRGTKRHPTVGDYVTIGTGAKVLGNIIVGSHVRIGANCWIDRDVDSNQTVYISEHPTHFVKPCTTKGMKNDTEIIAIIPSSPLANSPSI

purified protein = substrate: N[C@@H](CO)C(=O)O; experiment: purified protein; type: biochemical, Entamoeba histolytica; conditions: acetyl coenzyme A active site

N[C@@H](CS)C(=O)O [L-cysteine]
IC50 [1]: 9.59 µM

B1: Serine acetyltransferase isoform 1 (EhSAT1) (Entamoeba histolytica) (protein)
chain: MDNYIYSIAHQLYEMYLQDEDAFHSKRDYPHKKVFTELQKLRKIFFPDFFMKHQKITESHIASELTKLVDYIKDSVTAYNDELFAHQCVMAILEKLPSIKRTLKTDLIAAYAGDPAAPGLSLIIRCYPGFQAVIVYRIAHVLYECGERYYCREMMESVHSYTSIDIHPGASIKGHFFIDHGVGVVIGETAIIGEWCRIYQSVTLGAMHFQEEGGVIKRGTKRHPTVGDYVTIGTGAKVLGNIIVGSHVRIGANCWIDRDVDSNQTVYISEHPTHFVKPCTTKGMKNDTEIIAIIPSSPLANSPSI
Km (purified protein; Asp114, Asp179, His180, His208, Arg222, His223): 43.5 µM

B2: Serine acetyltransferase isoform 3 (EhSAT3) (Entamoeba histolytica) (protein)
chain: MSSLLQQTSQLLVQSYQSDNIAFKSTKQFPEKKSFLELELIQKILFPDFFTRRDKRTFNNVLERLSLLVYHIQNSIEAYYNQQLAEKCITALLSQFVTIRELVKQDIIAAYTGDPAASSLAMIIRSYPGIHVMMIQRVAHILYMNGDIEYSRELMENIHSVTGIDIHPGTSIGNHFFIDHGVGVVIGETAVIGNWCRVYQSVTLGAMSFKEDNGIVIKGNKRHPTIGDFVVIGAGAKVLGNITIGSNVKIGANCWITQNIDQDQIVFISEHPSQITKSSTKQSSKDDKIILQSLTENKISEEQENLSWVNSPELLCTYTSEESTPINLDCFVSCQQ
Km (purified protein): 52.0 µM
